Results published in the DeepSol protein solubility set.

Experiment: soluble on expression in E. coli; label from the status in PepcDB or PDB records

Sequence | soluble on expression in E. coli
MSSIVEHVVLFKLNDDDVDSGKINSMVNGINELVNLDQVLHLYCGSIHRLITTTASDFTHVLHSRYRSKEDLNAYAIHPDHVRVVKESESIREDIMAVDWIAEQAPEALAPPLGSIGKITLLKLKENVMEEAKLEIMEVMKEKFEGIDQITVGENFSPGRSKDFSIGSISYFRDLGEIEAVDDQMKLQNDKIRDYVDDTIVVEFNVPSSS | soluble
MAVASTSTSDGMLTLDLIQEEDPSPEEPTSCAESFRVDLDKSVAQLAGSRRRADSDRIQPSADRASSLSRPWEKTDKGATYTPQAPKKLTPTEKGRCASLEEILSQRDAASARTLQLRAEEPPTPALPNPGQLSRIQDLVARKLEETQELLAEVQGLGDGKRKAKDPPRSPPDSESEQLLLETERLLGEASSNWSQAKRVLQEVRELRDLYRQMDLQTPDSHLRQTTPHSQYRKSLM | soluble
MGSDKIHHHHHHMSNKLPALHLFGIFEAAARHENFKQAAAELFITPSAVSHQIKALEAFLGFELFQRKSRGVALNAAGKVYLHYVQQGINKLEQGTKIVSNKFSSPSLKISTFTTMASNVIIPTLSDFQQQHPTIDIRIETGMNLTDLRYDDCDLAIRMGKGDWPGVVVKKLLNLTAHAVCSAEFAKKHKLTSPEQISQVPLIDLANMNNIWRTWAGAMQLPEMQYQHKLTFGNYDASLQAAEQGLGLALAIMPIEHALIERNLLVLPFEKSTNFDQSLYAVYREEDQNRNDIHCFLDWLTQSPNLKPI | not soluble
MSLDNPNSSIFADLLAKASELENIIVTLQHKIQGGYYFLNDIEIISEDDARNFDVELVRLKGICNHMQRYNTKAKMRNIDWPIDVVKTAMTETRSKVFETLDLMKELDGFRDLVSYLRIALSNVNDNDLKTEIISSIDGIKEVINKGKQARDAYKLKLEALKDRYATWYMEAYLKAHISEIDHGKKSAVMLSTEKQLCDIIKNASFINPSRYDNWLRKMNLLKVVNSSVNKNAILSVPTSVDGFNPSMQKDELPELEDLKDELKEIYAEYEQGFHDALEDPTILRNKEMLTQEERSTIQQFIDGNITLNPQYARILIDIINKLQRSFTKVEINHNEMLKIFSRPMTKQQALDALAAYIDNHSRGHKPEDIRIIVKEGHHHHHH | soluble
YHETVIYEAHVKGMTQTHPSIPPELRGTYAGLAHPVIIDHLNELNVTAVELMPVHQFLHDSRLLDLGLRNYWGYNTFGFFAPHHQYASTRQAGSAVAEFKTMVRSLHEAGIEVILDVVYNHTAEGNHLGPTINFRGIDNTAYYRLMDHDLRFYKDFTGTGNSLNARHPHTLQLIMDSLRYWVIEMHVDGFRFDLASTLARELHDVDRLSAFFDLVQQDPVVSQVKLIAEPWDVGEGGYQVGNFPGLWTEWNGKYRDTVRDYWRGEPATLGEFASRLTGSSDLYEATGRRPSASINFVTAHDGFTLNDLVSYNDKHNEANGENNRDGESYNRSWNCGVEGPTDDPDILALRARQMRNMWATLMVSQGTPMIAHGDEIGRTQYGNNNVYCQDSELSWMDWSLVDKNADLLAFARKATTLRKNHKVFRRRRFFEGEPIRSGDEVRDIAWLTPSGREMTHEDWGRGFDRCVAVFLNGEAITAPDARGERVVDDSFLLCFNAHDHDVEFVMPHDGYAQQWTGELDTNDPVGDIDLTVTATDTFSVPARSLLVLRKTL | soluble
MTTQAPTFTQPLQSVVVLEGSTATFEAHISGFPVPEVSWFRDGQVISTSTLPGVQISFSDGRAKLTIPAVTKANSGRYSLKATNGSGQATSTAELLVKAETAPPNFVQRLQSMTVRQGSQVRLQVRVTGIPTPVVKFYRDGAEIQSSLDFQISQEGDLYSLLIAEAYPEDSGTYSVNATNSVGRATSTAELLVQGETREEF | soluble
GMIRVMATGVFDILHLGHIHYLKESKKLGDELVVVVARDSTARNNGKIPIFDENSRLALISELKVVDRAILGHEGDMMKTVIEVKPDIITLGYDQKFDEAELQSKINKLGITVKIVRISKYDGQLNSSSSVRKKIMELIGERY | soluble
MGSDKIHHHHHHMDRWTQLQLFVLTADLGSLSKAAEQLDMSNAAASRTLSSLEERLGARLIERTTRRMWLTDAGREYHRRCTAVIAELAEADAIASEEVVNPRGVLRVTSSVSFAMMHLAPALPEFLKRYPNLTVQITATNQYQNFIESGIDIAIRTKEHEGDSCITIRRLAETRRVLAASPAYLATHGRPQKPEDLAQHNMLVYNLAVDPYLLHLRRGKEERNIAIASALDSNEGQVIVAAGRAGLGIVVQPLYIIHDDIVSGRLVPVLEDWQLPRLTINLAYQSRRYQPAKIRVFTDFLIERVKNLNLEERWMTFAA | not soluble
MVEKPDINYQNKNVLHEINICYLGIMNKSLIALGAQTARRFLSSSSKNTIGGGDANRADTGVLDGYHINPLEESDMTDRSRISMLSTEMLEAKQIGVRGLSCYGFRLLDGTFLYGPIALFPKTALSWRVPTPEDITPRSLALFAALEPKIDILVLGVGDKKNIDKVRASVAPFLREHKIGLEIMDTEDAIATFNFLNAEGRYVGAALYPPDDMVVTDKEYGRALALLKGWDTVEENPLLTGLSDTINGAEDLVKRLWSGDEKSWQSARQKVLESPSEREERMQQEMNDKEKKRIE | not soluble
GMTSPSIESGARERTRRAILDAAMLVLADHPTAALGDIAAAAGVGRSTVHRYYPERTDLLRALARHVHDLSNAAIERADPTSGPVDAALRRVVESQLDLGPIVLFVYYEPSILADPELAAYFDIGDEAIVEVLNRASTERPEYPPGWARRVFWALMQAGYEAAKDGMPRHQIVDAIMTSLTSGIITLPRT | soluble
PNGDKVHAWYWQSPRRDAPTVLYLHGARWNLNGSAFRMEGWTRMGYSMLAIDYRGFGQSTPLLPSEQSASQDAAAALQELARRQPDPARRFIYGHSLGGAIAIDLAARPDLPPFAGLIVESSFTSIGAMLGTMKWGWVPGATLLVTQPFASVDKLAALTTPMLLLHGTADRVVPHTMSDELYRAAQQVPADLKRLVKIEGASHSGAIRSGRIYEDAVADFVRDAGRGYAGRQGAPTPLTASRPGT | not soluble
MTQPLRQYREKRDFRATAEPAGAARRPRAAARASEGLSFVIQRHQARRLHYDFRLEIDGVLVSWAVPKGPSRDPSVKRLAVHVEDHPLEYGGFSGDIPKGQYGAGHVDIWDSGVWIPRGDPRQGLRRGKLHFALRGRRLAGDWVLVRMSGEQDQWLLRKEDDEALEHHHHHH | soluble
AHHHHHHGSKRVNAFNDLKRIGDDKVTAIGMGTWGIGGRETPDYSRDKESIEAIRYGLELGMNLIDTAEFYGAGHAEEIVGEAIKEFEREDIFIVSKVWPTHFGYEEAKKAARASAKRLGTYIDLYLLHWPVDDFKKIEETLHALEDLVDEGVIRYIGVSNFNLELLQRSQEVMRKYEIVANQVKYSVKDRWPETTGLLDYMKREGIALMAYTPLEKGTLARNECLAKIGEKYGKTAAQVALNYLIWEENVVAIPKASNKEHLKENFGAMGWRLSEEDREMARRCV | soluble
MVISMSDLTFEDVKKEISALDKLSDLEAKKYADTGGYADVIARANNLKTTQLRKFFSAIRSMEKKADSWKSIEADFYLLKPQLANARGRDLIPEGFYEVMKKMMDKVDRGDDDEKIENFRVFVRFLESIVAYHKFYNPRS | not soluble
MILDVDYITEEGKPVIRLFKKENGKFKIEHDRTFRPYIYALLRDDSKIEEVKKITGERHGKIVRIVDVEKVEKKFLGKPITVWKLYLEHPQDVPTLREKVREHPAVVDIFEYDIPFAKRYLIDKGLIPMEGEEELKILAFDIETLYHEGEEFGKGPIIMISYADENEARVITWKNIDLPYVESVSTEKEMIKRFLRIIREKDPDIIVTYNGDSFDFPYLAKRAEKLGIKLTIGRDGSEPKMQRIGDMTAVEVKGRIHFDLYHVIRTTINLPTYTLEAVYEAIFGKPKEKVYADEIAKAWESGENLERVAKYSMEDAKATYELGKEFLPMEIQLSRLVGQPLWDVSRSSTGNLVEWFLLRKAYERNEVAPNKPSEEEYQRRLRESYTGGFVKEPEKGLWENIVYLDYKSLYPSIIITHNVSPDTLNLEGCKNYDIAPQVGHKFCKDIPGFIPSLLGHLLEERQKIKTKMKETQDPIEKILLDYRQKAIKLLANSFYGYYGYAKARWYCKECAESVTAWGRKYIELVWKELEEKFGFKVLYIDTDGLYATIPGGESEEIKKKALEFVKYINSKLPGLLELEYEGFYKRGFFVTKKRYAVIDEEGKVITRGLEIVRRDWSEIAKETQARVLETILKHGDVEEAVRIVKEVIQKLANYEIPPEKLAIYEQITRPLHEYKAIGPHVAVAKKLAAKGVKIKPGMVIGYIVLRGDGPISNRAILAEEYDPKKHKYDAEYYIENQVLPAVLRILEGFGYRKEDLRYQKTRQVGLTSWLNIKKS | soluble
ADLGHQTLGSNDGWGAYSTGTTGGSKASSSNVYTVSNRNQLVSALGKETNTTPKIIYIKGTIDMNVDDNLKPLGLNDYKDPEYDLDKYLKAYDPSTWGKKEPSGTQEEARARSQKNQKARVMVDIPANTTIVGSGTNAKVVGGNFQIKSDNVIIRNIEFQDAYDYFPQWDPTAGSSGNWASQYDNITINGGTHIWIDHCTFNDGSRPDSTSPKYYGRKYQHHDGQTDASNGANYITMSYNYYHDHDASSIFGSSDSKTSDDGKLKITLHHNRYKNIVQRAPRVRFGQVHVYNNYYEGSTSSSSYPFSYAWGIGKSSKIYAQNNVIDVPGLSAAKTISVFSGGTALYDSGTLLNGTQINASAANGLSSSVGWTPSLHGSIDASANVKSNVINQAGAGKLN | soluble
SARIILERFLQGHEQTPPSKSVINSMLRDPSQIPDGVLANQVYQCIVNDCCYGPLVDCIKHAIGYEHEVLLRDLLLKKNLSFLDEDQLRAKGYDKTPDFILQVPVAVEGHIIHWIESKASFGDECSHHAYLHGQFWSYWNRFGPGLVIYWYGFIQELDCNRERGILLKASFPTDIVTLCHSTA | soluble
MAHHHHHHMNSTLVHDLQQFRYVTAFTNPLPWPHVRRVSIPGLRHEAPDLPFMANLISALSDCDVSLHKIHEHNDTDILQLVQVLQACLQFSLWSQNILKEKLLEVQATHVAKGVSAQQLENLEKRYHALEGEMAALHKDRGMLSLGTANLRTSLAQMEKTIKRQERQLQQERGRNAQLVAKLEKALCARAVAAPLMSAPRLPPPRESQQRPAGNRHASAPTHRTTKATTVYDSSRLPTDNADAHRDSIASLTSDTSYGDSCLSAEVAARTHSHVPQPCDSLDPPPPPFLDWRTLVRYIIHEEQRASVWASNHASPTAARATADERGIASKEELMPAAQHPSKPAAALPAAATQRVTEAQLDSFFAGLTAGVTTEVVAYSRAVAARVEEMVRAATQQWIQETAEAQQALMAQVQAALGSLGAELAVHKQLKDATPSPALRTVAMPVATSDASDPHAQLAPFSPVLASSSVRNSAAAALPAPCQHAGNALVTLANAPPTNDSKPLSQPPQTSASPLTPSIDSSPPASFLNSFVMSGTALCHSTTGCEVLDGGSKTRTPLPDFSPDILRTPPTSEHGTAAAPLGTGSDGPRSVVSRADDADERDVDVDLLPLDSSSSDSSSGSSQRSDGTADGVAEVSHAYARVLAKPSSPPPMYPNKTPTAAAFVVQPAAPTHPSANRTLSLHFSTRSDVSEGSSYGSSQMLRETRAQLQALLEEEEAAGRAKTHR | not soluble
AHHHHHHGSVDYELLKKVVEAPGVSGYEFMGIRDVVIEEIKDYVDEVNVDKLGNVIAHKKGEGPKVMIAAHMDQIGLMVTHIEKNGFLRVAPIGGIDPRTLIAQRFKVWIDKGKFIYGVGGSVPPHIQKPEDRKKAPDWDQIFIDIGAESKEEAEELGVKIGTIVTWDGRLERLGKHRFVSIAFDDRIAVYTLIETARQLQDTKADIYFVATVQEEVGLRGARTSAFGINPDYGFAIDVTIAADVPGTPEHKQVTQLGKGTAIKIMDRSVICHPTIVRWMEELAKKYEIPYQWDILLGGGTDAGAIHLTRAGVPTGAVSIPARYIHSNAEVVDERDVDASVKLMVKVLEHIHELKI | soluble
